Where a chain is given by its changes, count along the chain named. Names may count otherwise.
T1: SND1 (Mus musculus, UniProt Q78PY7)
T1 construct: endogenous in cells; host or cells: PyMT;Mtdh−/− (A9) or PyMT;Mtdh+/+ (A13) mouse mammary epithelial/tumor cells
T1 sequence (Q78PY7 1-910): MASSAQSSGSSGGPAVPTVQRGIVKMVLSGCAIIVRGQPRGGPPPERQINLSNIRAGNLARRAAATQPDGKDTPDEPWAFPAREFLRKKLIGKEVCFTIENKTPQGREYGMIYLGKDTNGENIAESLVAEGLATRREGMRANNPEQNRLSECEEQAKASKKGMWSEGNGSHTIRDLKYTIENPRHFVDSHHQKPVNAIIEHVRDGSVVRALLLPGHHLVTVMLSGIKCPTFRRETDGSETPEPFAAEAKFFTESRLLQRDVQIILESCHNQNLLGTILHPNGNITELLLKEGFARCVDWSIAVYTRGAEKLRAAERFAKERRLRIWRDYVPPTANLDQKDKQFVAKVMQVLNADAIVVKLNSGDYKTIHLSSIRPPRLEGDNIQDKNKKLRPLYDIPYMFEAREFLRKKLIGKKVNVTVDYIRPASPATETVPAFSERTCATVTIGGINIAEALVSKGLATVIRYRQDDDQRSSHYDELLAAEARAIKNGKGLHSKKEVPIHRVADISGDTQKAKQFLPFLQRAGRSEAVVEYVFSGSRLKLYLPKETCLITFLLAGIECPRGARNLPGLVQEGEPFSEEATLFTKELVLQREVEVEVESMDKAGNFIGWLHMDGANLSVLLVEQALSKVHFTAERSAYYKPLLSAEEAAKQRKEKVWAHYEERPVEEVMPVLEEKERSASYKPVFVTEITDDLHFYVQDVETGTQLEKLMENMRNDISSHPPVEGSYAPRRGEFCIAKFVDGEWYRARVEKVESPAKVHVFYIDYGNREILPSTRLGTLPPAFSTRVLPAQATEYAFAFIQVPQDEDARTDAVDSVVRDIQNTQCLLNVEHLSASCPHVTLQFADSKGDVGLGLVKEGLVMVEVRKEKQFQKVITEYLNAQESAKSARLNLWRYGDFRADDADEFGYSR

B1: murine TPM1: murine Mtdh triple mutant D386R, D390R, W391D (protein, UniProt Q80WJ7 1-579, looked up, variant D386R D390R W391D)
Protein LYRIC: MAARSWQDELAQQAEEGSARLRELLSVGLGFLRTELGLDLGLEPKRYPGWVILVGTGALGLLLLFLLGYGWAAACAGARKKRRSPPRKREEAAPPTPAPDDLAQLKNLRSEEQKKKNRKKLPEKPKPNGRTVEVPEDEVVRNPRSITAKQAPETDKKNEKSKKNKKKSKSDAKAVQNSSRHDGKEVDEGAWETKISHREKRQQRKRDKVLTDSGSLDSTIPGIENIITVTTEQLTTASFPVGSKKNKGDSHLNVQVSNFKSGKGDSTLQVSSRLNENLTVNGGGWSEKSVKLSSQLSEEKWNSVPPASAGKRKTEPSAWTQDTGDTNANGKDWGRNWSDRSIFSGIGSTAEPVSQSTTSDYQWDVSRNQPYIDDEWSGLNGLSSARPSSRDNAPAEEWGNWVDEDRASLLKSQEPISNDQKVSDDDKEKGEGALPTGKSKKKKKKKKKQGEDNSHTQDTEDLEKDTREELPVNTSKARPKQEKACSLKTMSTSDPAEVLIKNSQPVKTLPPAISAEPSITLSKGDSDNSSSQVPPMLQDTDKPKSNAKQNSVPPSQTKSETNWESPKQIKKKKKARRET
B2: murine W401A: murine MTDH mutant W398A, corresponding to human W401A (protein)
chain: B1 Protein LYRIC with R386D, R390D, D391W, W398A
B3: murine W394A: murine MTDH mutant W391A, corresponding to human W394A (protein)
chain: B1 Protein LYRIC with R386D, R390D, D391A
B4: murine TPM2: murine Mtdh triple mutant E396R, E397R, W398D (protein, UniProt Q80WJ7 1-579, looked up, variant E396R E397R W398D)
Protein LYRIC: B1 Protein LYRIC with R386D, R390D, D391W, E396R, E397R, W398D

Target: T1, SND1
Assay: Anti-MTDH immunoprecipitation from PyMT;Mtdh−/− tumor cells reconstituted with murine MTDH
Type: cell-based
Details: stably expressed in PyMT;Mtdh−/− tumor cells
Protocol: (FIG. 8A, FIG. 8E) Lysates from PyMT;Mtdh−/− MECs reconstituted with vector control, WT or mutant murine MTDH were immunoprecipitated with anti-MTDH antibody and immunoblotted for indicated proteins. (FIG. 8B, FIG. 8F) Mammosphere assays were performed with PyMT;Mtdh−/− pMECs reconstituted with indicated Mtdh constructs. (FIG. 8C, FIG. 8D, FIG. 8G, FIG. 8H) In vivo tumor formation (FIG. 8C, FIG. 8G for tumor incidence; FIG. 8D, FIG. 8H for tumor volumes) were performed at limiting numbers using PyMT;Mtdh−/− pMECs reconstituted with indicated WT or mutant MTDH. *Note: mouse W391D MTDH corresponds to human W394D MTDH; and mouse W398D MTDH corresponds to human W401D MTDH. Statistics: (FIG. 8B, […]) Student's t-test. (FIG. 8C, FIG. 8G) Limiting dilution analysis. (FIG. 8D, FIG. 8H) Mann-Whitney test. Data represent mean±SEM. ***p<0.001, **p<0.01, *p<0.05.
(FIG. 23A) Lysates from PyMT;Mtdh−/− tumor cells reconstituted with vector control, WT or mutant murine MTDH were immunoprecipitated with anti-MTDH antibody and immunoblotted for indicated proteins. Note all amino acid annotations are based on human MTDH. W394 and W401 of human MTDH correspond to W391 and W398 in murine MTDH, respectively. (FIG. 23B) Mammosphere assays were performed with PyMT;Mtdh−/− tumor cells reconstituted with indicated MTDH constructs. (FIG. 23C-E) In vivo tumor formation (FIG. 23C for tumor incidence; FIG. 23D, FIG. 23E for tumor volumes) were performed at limiting numbers using PyMT;Mtdh−/− tumor cells reconstituted with indicated WT or mutant MTDH. Statistics: (FIG. 23B) Student's t-test. Data represent mean±SEM. (FIG. 23C) Limiting dilution analysis. (FIG. 23D, FIG. 23E) Mann-Whitney test. **p<0.01, *p<0.05.
Immunoprecipitation and western blot For immunoprecipitation (IP) experiments, cultured cells were washed in cold PBS and lysed in lysis buffer (20 mM Tris pH 7.4, 0.15 M NaCl, 1 mM EDTA, 1 mM EGTA, 1% Tx-100, 0.0025 M Na2P2O7, 1 mM α-glycerolphosphate, 1 mM Na3VO4, and 1 mM NaF) with an EDTA-free protease inhibitor mixture (Roche Applied Science) and PMSF. Cell lysates were then incubated on ice for 10 min, centrifuged, and precleared by incubating with protein A/G beads (Santa Cruz Biotechnology) for 1 h at 4° C. For IP bead preparation, 30 μl of protein A/G beads were incubated with 5 μg of antibodies for 2 h at 4° C. IPs were carried out for overnight at 4° C., and beads were centrifuged, washed and subsequently boiled for 5 min in SDS protein loading buffer to elute bound protein. IP lysates were subjected to western blotting with indicated antibodies. […]

Molecule	interaction of murine MTDH mutants with SND1
B1	lost the ability to interact with SND1
B2	completely lost the ability to interact with SND1
B3	completely lost the ability to interact with SND1
B4	lost the ability to interact with SND1

From patent publication US10357539B2, “Use of peptides that block metadherin-SND1 interaction as treatment for cancer” (THE TRUSTEES OF PRINCETON UNIVERSITY, priority 2014, dated 2019)
